Measurements as given in the supplement of paper PMC10567573.

B1: MATN2 (parent)
chain: FSLKTFKRKSEVERAVKRMRHLST

Variants of: B1
Experiment: protein stability index of a GFP-peptide fusion (GPS, HEK-293T) (PSI 1-6); higher = more stable
Settings: c terminus: a fixed tail appended
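Also: lentivirally expressed fusions sorted by FACS into six bins by GFP to DsRed ratio, PSI derived from sequencing read proportions per bin multiplied by bin number.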

Variant | protein stability index
FSLKTFKRKSETERAVKRMRHLST [V12T] | 2.38
FSLKTFKRKSEHERAVKRMRHLST [V12H] | 2.54
FSLKTFKRKSEMERAVKRMRHLST [V12M] | 2.11
FSLKTFKRKSELERAVKRMRHLST [V12L] | 2.56
FSLKTFKRKSEFERAVKRMRHLST [V12F] | 1.4
FSLKTFKRKSENERAVKRMRHLST [V12N] | 1.87
FSLKTFKRKSEGERAVKRMRHLST [V12G] | 2.91
FSLKTFKRKSEQERAVKRMRHLST [V12Q] | 3.15
FSLKTFKRKSECERAVKRMRHLST [V12C] | 2.25
FSLKTFKRKSEYERAVKRMRHLST [V12Y] | 2.12
FSLKTFKRKSERERAVKRMRHLST [V12R] | 3.19
FSLKTFKRKSESERAVKRMRHLST [V12S] | 2.98
FSLKTFKRKSEPERAVKRMRHLST [V12P] | 2.5
FSLKTFKRKSEKERAVKRMRHLST [V12K] | 3.17
FSLKTFKRKSEAERAVKRMRHLST [V12A] | 2.36
FSLKTFKRKSEEERAVKRMRHLST [V12E] | 2.34
FSLKTFKRKSEWERAVKRMRHLST [V12W] | 1.24
FSLKTFKRKSEVERAVKRMRHFST [L22F] | 2.1
FSLKTFKRKSEVERAVKRMRHEST [L22E] | 3.18
FSLKTFKRKSEVERAVKRMRHKST [L22K] | 3.09
FSLKTFKRKSEVERAVKRMRHDST [L22D] | 2.96
FSLKTFKRKSEVERAVKRMRHHST [L22H] | 2.59
FSLKTFKRKSEVERAVKRMRHAST [L22A] | 2.81
FSLKTFKRKSEVERAVKRMRHIST [L22I] | 2.36

Variant | protein stability index
FSLKTFKRKSEVERAVKRMRHCST [L22C] | 2.79
FSLKTFKRKSEVERAVKRMRHGST [L22G] | 2.79
FSLKTFKRKSEVERAVKWMRHLST [R18W] | 2.04
FSLKTFKRKSEVERAVKDMRHLST [R18D] | 2.8
FSLKTFKRKSEVERAVKSMRHLST [R18S] | 2.21
FSLKTFKRKSEVERAVKKMRHLST [R18K] | 1.97
FSLKTFKRKSEVERAVKTMRHLST [R18T] | 2.26
FSLKTFKRKSEVERAVKIMRHLST [R18I] | 2.16
FSLKTFKRKSEVERAVKPMRHLST [R18P] | 2.36
FSLKTFKRKSEVERAVKVMRHLST [R18V] | 2.34
FSLKTFKRKSEVERAVKLMRHLST [R18L] | 1.97
FSLKTFKRKSEVERAVKCMRHLST [R18C] | 1.8
FSLKTFKRKSEVERAVKYMRHLST [R18Y] | 3.03
FSLKTFKRKSEVERAVKQMRHLST [R18Q] | 1.93
FSLKTFKRKSEVERAVKHMRHLST [R18H] | 2.4
FSLKTFKRKSEVERAVKFMRHLST [R18F] | 1.54
FSLKTFKRKSEVERAVKNMRHLST [R18N] | 2.52
FSLKTFKRKSEVERAVKAMRHLST [R18A] | 1.96
FSLKTFKRKSEVERAVKGMRHLST [R18G] | 2.8
FSLKTFKRKSEVERAVKMMRHLST [R18M] | 1.93
FSLKTFKRKSVVERAVKRMRHLST [E11V] | 2.38
FSLKTFKRKSYVERAVKRMRHLST [E11Y] | 2.09
FSLKTFKRKSTVERAVKRMRHLST [E11T] | 2.99
FSLKTFKRKSEVEPAVKRMRHLST [R14P] | 2.49

Variant | protein stability index
FSLKTFKRKSEVENAVKRMRHLST [R14N] | 2.46
FSLKTFKRKSEVEHAVKRMRHLST [R14H] | 2.28
FSLKTFKRKSEVEFAVKRMRHLST [R14F] | 2.65
FSLKTFKRKSEVEMAVKRMRHLST [R14M] | 3.08
FSLKTFKRKSEVEEAVKRMRHLST [R14E] | 2.49
FSLKTFKRKSEVEWAVKRMRHLST [R14W] | 2.25
FSLKTFKRKSEVESAVKRMRHLST [R14S] | 2.49
FSLKTFKRKSEVELAVKRMRHLST [R14L] | 1.96
FSLKTFKRKSEVETAVKRMRHLST [R14T] | 2.87
FSLKTFKRKSEVEDAVKRMRHLST [R14D] | 2.73
FSLKTFKRKSEVEGAVKRMRHLST [R14G] | 2.15
FSLKTFKRKSEVEKAVKRMRHLST [R14K] | 3.11
FSLKTFKRKSEVEVAVKRMRHLST [R14V] | 2.75
FSLKTFKRKSEVECAVKRMRHLST [R14C] | 1.83
FSLKTFKRKSEVERAVKRMRALST [H21A] | 2.77
FSLKTFKRKSEVERAVKRMRILST [H21I] | 1.76
FSLKTFKRKSEVERAVKRMRVLST [H21V] | 1.3
FSLKTFKRKSEVERAVKRMRYLST [H21Y] | 2.84
FSLKTFKRKSEVERAVKRMRSLST [H21S] | 1.68
FSLKTFKRKSEVERAVKRMRDLST [H21D] | 2.76
FSLKTFKRKSEVERAVKRMRGLST [H21G] | 1.75
FSLKTFKRKSEVERAVKRMRLLST [H21L] | 1.46
FSLKTFKRKSEVERAVKRMRNLST [H21N] | 2.4
FSLKTFKRKSEVERAVKRMRPLST [H21P] | 2.58

Variant | protein stability index
FSLKTFKRKSEVERAVKRMRQLST [H21Q] | 1.87
FSLKTFKRKSEVERAVKRMRTLST [H21T] | 2.72
FSLKTFKRKSEVERAVKRMRELST [H21E] | 2.28
FSLKTFKRKSEVERAVKRMRFLST [H21F] | 1.99
FSLKTFKRKSEVERAVKRMRRLST [H21R] | 2.41
FSLKTFKRKSEVERAVKRMRCLST [H21C] | 2.28
FSLKTFKRKSEVERAVKRMRKLST [H21K] | 3.76
FSLKTFKRKSEVERAVKRHRHLST [M19H] | 2.89
FSLKTFKRKSEVERAVKRARHLST [M19A] | 3.21
FSLKTFKRKSEVERAVKRVRHLST [M19V] | 2.21
FSLKTFKRKSEVERAVKRWRHLST [M19W] | 2.9
FSLKTFKRKSEVERAVKRDRHLST [M19D] | 2.76
FSLKTFKRKSEVERAVKRNRHLST [M19N] | 2.68
FSLKTFKRKSEVERAVKRRRHLST [M19R] | 4.54
FSLKTFKRKSEVERAVKRTRHLST [M19T] | 2.84
FSLKTFKRKSEVERAVKRCRHLST [M19C] | 2.61
FSLKTFKRKSEVERAVKRFRHLST [M19F] | 2.18
FSLKTFKRKSEVERAVKRKRHLST [M19K] | 3.67
FSLKTFKRKSEVERAVKRQRHLST [M19Q] | 2.57
FSLKTFKRKSEVERAVKRLRHLST [M19L] | 2.31
FSLKTFKRKSEVERAVKRSRHLST [M19S] | 2.84
FSLKTFKRKSEVERAVKRYRHLST [M19Y] | 2.5
